B1: APBB1IP (parent)
chain: PPEPLSQVSMWDQRWQDHQPLLPI

Variants of: B1
Experiment: protein stability index of a GFP-peptide fusion (GPS, HEK-293T) (PSI 1-6); higher = more stable
Settings: c terminus: a fixed tail appended
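Note: lentivirally expressed fusions sorted by FACS into six bins by GFP to DsRed ratio, PSI derived from sequencing read proportions per bin multiplied by bin number.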

Going from PPEPLSQVSMWDQRWQDIQPLLPI [H18I] to PPEPLSQVSMWDQRWQDKQPLLPI [H18K], the protein stability index rises from 2.69 to 3.1.

Going from PPEPLSQVSMWDQRWQDLQPLLPI [H18L] to PPEPLSQVSMWDQRWQDMQPLLPI [H18M], the protein stability index falls from 3.09 to 2.71.

First: PPEPLSQVSMWDQRWQDNQPLLPI [H18N]
Second: PPEPLSQVSMWDQRWQDPQPLLPI [H18P]
The protein stability index of the first is lower: 2.97 for the first, 3.34 for the second.

Compared with PPEPLSQVSMWDQRWQDQQPLLPI [H18Q], PPEPLSQVSMWDQRWQDRQPLLPI [H18R] is lower in protein stability index: 3.01 for the first, 2.74 for the second.

Going from PPEPLSQVSMWDQRWQDSQPLLPI [H18S] to PPEPLSQVSMWDQRWQDTQPLLPI [H18T], the protein stability index rises from 3.11 to 3.44.

Compared with PPEPLSQVSMWDQRWQDVQPLLPI [H18V], PPEPLSQVSMWDQRWQDWQPLLPI [H18W] is higher in protein stability index: 2.83 for the first, 3.02 for the second.

Compared with PPEPLSQVSMWDQRWQDYQPLLPI [H18Y], PPEPLSQVSMWDQRWQDHAPLLPI [Q19A] is lower in protein stability index: 3.2 for the first, 3.04 for the second.

Going from PPEPLSQVSMWDQRWQDHCPLLPI [Q19C] to PPEPLSQVSMWDQRWQDHDPLLPI [Q19D], the protein stability index rises from 2.61 to 3.74.

First: PPEPLSQVSMWDQRWQDHEPLLPI [Q19E]
Second: PPEPLSQVSMWDQRWQDHFPLLPI [Q19F]
The protein stability index of the first is higher: 3.48 for the first, 2.89 for the second.

Going from PPEPLSQVSMWDQRWQDHGPLLPI [Q19G] to PPEPLSQVSMWDQRWQDHHPLLPI [Q19H], the protein stability index falls from 3.33 to 2.48.

Compared with PPEPLSQVSMWDQRWQDHIPLLPI [Q19I], PPEPLSQVSMWDQRWQDHKPLLPI [Q19K] is higher in protein stability index: 2.47 for the first, 2.87 for the second.

Compared with PPEPLSQVSMWDQRWQDHLPLLPI [Q19L], PPEPLSQVSMWDQRWQDHMPLLPI [Q19M] is lower in protein stability index: 2.83 for the first, 2.72 for the second.

First: PPEPLSQVSMWDQRWQDHNPLLPI [Q19N]
Second: PPEPLSQVSMWDQRWQDHPPLLPI [Q19P]
The protein stability index of the first is higher: 3 for the first, 2.63 for the second.

First: PPEPLSQVSMWDQRWQDHRPLLPI [Q19R]
Second: PPEPLSQVSMWDQRWQDHSPLLPI [Q19S]
The protein stability index of the first is higher: 3 for the first, 2.31 for the second.

First: PPEPLSQVSMWDQRWQDHTPLLPI [Q19T]
Second: PPEPLSQVSMWDQRWQDHVPLLPI [Q19V]
The protein stability index of the first is higher: 3.02 for the first, 2.33 for the second.

Compared with PPEPLSQVSMWDQRWQDHWPLLPI [Q19W], PPEPLSQVSMWDQRWQDHYPLLPI [Q19Y] is higher in protein stability index: 2.21 for the first, 2.44 for the second.

Compared with PPEPLSQVSMWDQRWQDHQALLPI [P20A], PPEPLSQVSMWDQRWQDHQCLLPI [P20C] is higher in protein stability index: 2.75 for the first, 2.95 for the second.

Compared with PPEPLSQVSMWDQRWQDHQDLLPI [P20D], PPEPLSQVSMWDQRWQDHQELLPI [P20E] is lower in protein stability index: 3.33 for the first, 3.29 for the second.

Going from PPEPLSQVSMWDQRWQDHQFLLPI [P20F] to PPEPLSQVSMWDQRWQDHQGLLPI [P20G], the protein stability index rises from 2.37 to 3.38.

Compared with PPEPLSQVSMWDQRWQDHQHLLPI [P20H], PPEPLSQVSMWDQRWQDHQILLPI [P20I] is lower in protein stability index: 3.23 for the first, 2.77 for the second.

Compared with PPEPLSQVSMWDQRWQDHQKLLPI [P20K], PPEPLSQVSMWDQRWQDHQLLLPI [P20L] is higher in protein stability index: 2.05 for the first, 2.61 for the second.

Compared with PPEPLSQVSMWDQRWQDHQMLLPI [P20M], PPEPLSQVSMWDQRWQDHQNLLPI [P20N] is higher in protein stability index: 3.03 for the first, 3.14 for the second.

Compared with PPEPLSQVSMWDQRWQDHQQLLPI [P20Q], PPEPLSQVSMWDQRWQDHQRLLPI [P20R] is lower in protein stability index: 3.26 for the first, 2.8 for the second.

Compared with PPEPLSQVSMWDQRWQDHQSLLPI [P20S], PPEPLSQVSMWDQRWQDHQTLLPI [P20T] is lower in protein stability index: 3.37 for the first, 2.84 for the second.

Going from PPEPLSQVSMWDQRWQDHQVLLPI [P20V] to PPEPLSQVSMWDQRWQDHQWLLPI [P20W], the protein stability index falls from 2.91 to 2.33.

Going from PPEPLSQVSMWDQRWQDHQYLLPI [P20Y] to PPEPLSQVSMWDQRWQDHQPALPI [L21A], the protein stability index rises from 2.33 to 3.88.

Going from PPEPLSQVSMWDQRWQDHQPCLPI [L21C] to PPEPLSQVSMWDQRWQDHQPDLPI [L21D], the protein stability index rises from 3.4 to 4.13.

First: PPEPLSQVSMWDQRWQDHQPELPI [L21E]
Second: PPEPLSQVSMWDQRWQDHQPFLPI [L21F]
The protein stability index of the first is higher: 4 for the first, 2.24 for the second.

First: PPEPLSQVSMWDQRWQDHQPGLPI [L21G]
Second: PPEPLSQVSMWDQRWQDHQPHLPI [L21H]
The protein stability index of the first is higher: 3.76 for the first, 3.39 for the second.

First: PPEPLSQVSMWDQRWQDHQPILPI [L21I]
Second: PPEPLSQVSMWDQRWQDHQPKLPI [L21K]
The protein stability index of the first is lower: 2.58 for the first, 3.44 for the second.

First: PPEPLSQVSMWDQRWQDHQPMLPI [L21M]
Second: PPEPLSQVSMWDQRWQDHQPNLPI [L21N]
The protein stability index of the first is lower: 3.4 for the first, 3.88 for the second.

Going from PPEPLSQVSMWDQRWQDHQPPLPI [L21P] to PPEPLSQVSMWDQRWQDHQPQLPI [L21Q], the protein stability index rises from 3.54 to 3.68.

Going from PPEPLSQVSMWDQRWQDHQPRLPI [L21R] to PPEPLSQVSMWDQRWQDHQPSLPI [L21S], the protein stability index falls from 3.58 to 3.26.

Going from PPEPLSQVSMWDQRWQDHQPTLPI [L21T] to PPEPLSQVSMWDQRWQDHQPVLPI [L21V], the protein stability index falls from 3.93 to 3.28.

Compared with PPEPLSQVSMWDQRWQDHQPWLPI [L21W], PPEPLSQVSMWDQRWQDHQPYLPI [L21Y] is higher in protein stability index: 2.74 for the first, 3.33 for the second.

Compared with PPEPLSQVSMWDQRWQDHQPLAPI [L22A], PPEPLSQVSMWDQRWQDHQPLCPI [L22C] is higher in protein stability index: 3.4 for the first, 3.5 for the second.

Compared with PPEPLSQVSMWDQRWQDHQPLDPI [L22D], PPEPLSQVSMWDQRWQDHQPLFPI [L22F] is lower in protein stability index: 3.89 for the first, 2.77 for the second.

Compared with PPEPLSQVSMWDQRWQDHQPLGPI [L22G], PPEPLSQVSMWDQRWQDHQPLHPI [L22H] is lower in protein stability index: 3.8 for the first, 3.29 for the second.

Compared with PPEPLSQVSMWDQRWQDHQPLIPI [L22I], PPEPLSQVSMWDQRWQDHQPLKPI [L22K] is higher in protein stability index: 2.49 for the first, 4.04 for the second.

Going from PPEPLSQVSMWDQRWQDHQPLMPI [L22M] to PPEPLSQVSMWDQRWQDHQPLNPI [L22N], the protein stability index rises from 2.58 to 3.55.

First: PPEPLSQVSMWDQRWQDHQPLPPI [L22P]
Second: PPEPLSQVSMWDQRWQDHQPLQPI [L22Q]
The protein stability index of the first is lower: 3.12 for the first, 3.68 for the second.

Going from PPEPLSQVSMWDQRWQDHQPLRPI [L22R] to PPEPLSQVSMWDQRWQDHQPLSPI [L22S], the protein stability index rises from 3.54 to 3.55.

First: PPEPLSQVSMWDQRWQDHQPLTPI [L22T]
Second: PPEPLSQVSMWDQRWQDHQPLVPI [L22V]
The protein stability index of the first is higher: 3.74 for the first, 3.2 for the second.

First: PPEPLSQVSMWDQRWQDHQPLWPI [L22W]
Second: PPEPLSQVSMWDQRWQDHQPLYPI [L22Y]
The protein stability index of the first is lower: 2.4 for the first, 2.44 for the second.

Compared with PPEPLSQVSMWDQRWQDHQPLLAI [P23A], PPEPLSQVSMWDQRWQDHQPLLCI [P23C] is higher in protein stability index: 2.05 for the first, 3.48 for the second.

Compared with PPEPLSQVSMWDQRWQDHQPLLEI [P23E], PPEPLSQVSMWDQRWQDHQPLLFI [P23F] is lower in protein stability index: 3.03 for the first, 1.67 for the second.

Going from PPEPLSQVSMWDQRWQDHQPLLHI [P23H] to PPEPLSQVSMWDQRWQDHQPLLII [P23I], the protein stability index falls from 2.05 to 2.04.

Reference: the supplement of paper PMC10567573
